Tests used:
human VEGFC [1] = molecular target: T1, human VEGFC (human, UniProt P49767 103-227, limits assumed); test: cell-based or functional assay
T1 sequence (looked up): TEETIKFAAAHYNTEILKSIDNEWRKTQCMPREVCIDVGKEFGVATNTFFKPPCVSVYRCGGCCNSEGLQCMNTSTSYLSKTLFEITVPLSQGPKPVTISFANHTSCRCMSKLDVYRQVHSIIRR

human VEGFC [2] = molecular target: T1, human VEGFC; test: biolayer interferometry (ForteBio), monovalent antigen-antibody binding, 30 C

B1: anti-VEGFC antibody am63G12.1-5G8-18B9 (VHH)
VHH: EVQLVESGGGLVQPGGSLRLSCAASGSSFSPYAMGWYRQAPGKQRELVSATSSGGFTLYADSVKGRFTISRDNSKNTVYLQMNSLRAEDTAVYYCYTYYREYDPEMYWGQGTQVTVSS
notes: also called anti-VEGFC humanized VHH antibody
Question: Which “IC50 of inhibition of VEGFC-induced activation of the KDR signaling pathway (NFAT-RE-luc2P/KDR HEK293 reporter cells)” value (human VEGFC [1]) does the source give for B1 here?
Answer: The value was about 4.46 nM.

Question: And the “IC50 of inhibition of hVEGFC-induced BaF3-FLT4 survival and proliferation (CCK-8)” value (human VEGFC [1])?
Answer: Its value is 0.792 nM.

Question: And the Kd (human VEGFC [2])?
Answer: Its Kd is 5.7 nM.

Question: And the koff (human VEGFC [2])?
Answer: The koff was 0.00036 s⁻¹.

Question: And the kon (human VEGFC [2])?
Answer: The kon was 63100 M⁻¹ s⁻¹.
